{
  "source": "patent US20120020878A1",
  "about": "“FUSOGENIC PROPERTIES OF SAPOSIN C AND RELATED PROTEINS AND PEPTIDES FOR APPLICATION TO TRANSMEMBRANE DRUG DELIVERY SYSTEMS” (CHILDREN'S HOSPITAL MEDICAL CENTER, priority 2008, published 2012)",
  "molecules": {"B1": {"name": "Saposin C: saposin C (SapC, a small lysosomal protein, 80 AA); recombinant, produced in E. coli (protein)", "chain": "SDVYCEVCEFLVKEVTKLIDNNKTEKEILDAFDKMCSKLPKSLSEECQEVVDTYGSSILSILLEEVSPELVCSMLHLCSG", "modifications": "left off: small tags and cut ends", "notes": "saposin C (SapC, a small lysosomal protein, 80 AA); recombinant, produced in E. coli"}, "B2": {"name": "saposin C(S37W): saposin C with a Trp at residue 37 (i.e., in the middle) (protein, UniProt P07602 311-390, looked up, variant S37W)", "Saposin-C": "B1 chain with S37W", "modifications": "Saposin-C"}},
  "key": {"tumors": {"tested_on": "tumors", "experiment": "Tumor imaging experiments with SapC peptide nanovesicles", "type": "in vivo, mice", "settings": "peptide in phospholipid (e.g., DOPS) nanovesicles", "from_the_text": "The nanovesicles are stable and relatively uncomplicated to make. […] For example, our fluorophore-nanovesicles offer a rapid and precise imaging method for seeing and measuring the change in tumor size of living mice. The tissue-homing, imaging nanovescicles of the present invention enable the researchers and physicians to determine the location and size of a broad range of tumors, including hidden, metastatic tumors.\nSeveral saposin C peptides were synthesized to test their activity in the nanovesicles. […] In one embodiment, the peptide comprises one of more sequences selected from the groups MCS, LCS, and VCS within the peptide sequence. In certain embodiments, amino acids, such as Lys or Cys, are required for the tumor-homing effect."}, "[1]": {"experiment": "Stopped-flow Trp fluorescence of saposin C/liposome complex formation", "type": "binding", "settings": "PS(18:1,1) or BPS vesicles", "from_the_text": "To investigate temporal and spatial interactions of saposins and liposomal membrane, fluorescence stopped-flow and quenching approaches are used with Trp as the intrinsic fluorescence probe of the saposins. These experiments allow identification of regional interactions between saposins and lipid bilayers, and also the kinetics of their binding.\nThis binding induces change is lipid-concentration dependent and requires at least one unsaturated fatty acid chain. To evaluate the kinetics of this interaction, stopped-flow experiments are conducted the change in fluorescence during saposin C/liposome complex formation is monitored. When saposin C(0W) is mixed with PS(18:1,1) or BPS vesicles, fluorescence of Trp is increased, but the time course of this change is undetectable due to limitation of the machine's capability. Apparently, the interaction of saposin C and unsaturated PS containing membranes occurs within at least 10 ms."}, "[2]": {"experiment": "R18 dequenching stopped-flow membrane fusion assay", "settings": "R18-labeled and unlabeled PS(18:1,1) vesicles", "from_the_text": "Fluorescence probes have been widely used to determine membrane fusion, such as fluorescence dequenching, and fluorescence resonance energy transfer (FET), and can be used for quantitative and kinetics analyses. The dequenching approach is used to investigate saposin C's fusogenic activity. Octadecyl rhodamine B (R18) is selected as fluorescence probe and is entrapped in internal aqueous compartment of liposomal vesicles by co-sonication with BPS or PS(18:1,1).\nFluorescence increase (dequenching) of R18 occurs upon R18 concentration decreases. After non-labeled and labeled vesicles fuse, the R18 concentration is diluted, resulting in an increase in intensity of fluorescence. R18-labeled vesicles (lipid:R18=96:4, mol:mol) are mixed with the same lipid vesicles without fluorescence probe. Stopped-flow assays are conducted to quickly mix these vesicles with saposin C or Ca^2+ ion. Time-trace curves are generated for kinetic analysis."}, "[3]": {"experiment": "Vesicle size change determination (N4 plus submicron particle sizer)", "from_the_text": "The amino acid residues 51-67 are necessary, but not sufficient, for its optimal enzymatic activation function. The disulfide structure and conformational alteration of saposin C upon lipid binding are also required for this activity. Three approaches are used for this study: (1) stopped-flow monitoring reduction of self-quenching resulting from fusion of fluorescence probe-containing vesicle with non-fluorescent vesicle induced by saposin C; (2) monitoring the lipid vesicle size changes upon addition of saposin C to vesicles, the size distribution as determined using N4 plus submicron particle sizer (Coulter Co.); (3) monitoring intrinsic fluorescence of Trp-saposin C change during liposomal fusion.\nElectron microscopy (EM) is used for vesicle fusion analysis, since the size of fused vesicles is bigger than those of non-fused. N4 plus submicron particle size is used to estimate particle sizes in the range of 3 nm to 3 um since most liposomes fit in this range. Sonication conditions with a cup sonicator give mono-dispersed BPS-liposomes with ˜200 nm in size. Upon addition of saposin C, these vesicles change to a larger size up to 2-3 um. The size increase is related to vesicles fusion as shown by the above dequenching experiments.\nSaposin C promotes the size changes at ˜50 nM concentration. To define the regions responsible for this fusion property, peptides containing only 50% of the NH2-terminal or 50% of the COOH-terminal halves in saposin C are tested. Both peptides show fusion activity."}, "[4]": {"experiment": "Fusion mechanism study with preformed saposin C-PS(18:1,1) liposome complexes", "protocol": "Protein conformational changes are thought to play a role in protein-mediated membrane fusion. This fusion mechanism is evaluated using saposin C-dependent membrane fusion. First, saposin C-PS(18:1,1) liposome complexes are formed. In this saposin C-anchored membrane, protein conformation is altered. This complex is stable from pH 3 to 10, and in low concentrations of SDS solution.\nSince the Trp in saposin C(0W) is embedded inside of lipid bilayer, the change of its signal is indicative of that the surrounding environment of Trp has been changed. After about 20 to 30 ms, Trp fluorescence signal decreases to the starting level. […] Shortly after this, the signal drops back to starting level signaling on end of the fusion process. […] Therefore, a conformational change of saposin C upon lipid binding is […] for its fusogenic activity."}, "acid β-glucosidase": {"target": "T1, acid β-glucosidase (Homo sapiens, UniProt P04062)", "T1 sequence (P04062 40-536)": "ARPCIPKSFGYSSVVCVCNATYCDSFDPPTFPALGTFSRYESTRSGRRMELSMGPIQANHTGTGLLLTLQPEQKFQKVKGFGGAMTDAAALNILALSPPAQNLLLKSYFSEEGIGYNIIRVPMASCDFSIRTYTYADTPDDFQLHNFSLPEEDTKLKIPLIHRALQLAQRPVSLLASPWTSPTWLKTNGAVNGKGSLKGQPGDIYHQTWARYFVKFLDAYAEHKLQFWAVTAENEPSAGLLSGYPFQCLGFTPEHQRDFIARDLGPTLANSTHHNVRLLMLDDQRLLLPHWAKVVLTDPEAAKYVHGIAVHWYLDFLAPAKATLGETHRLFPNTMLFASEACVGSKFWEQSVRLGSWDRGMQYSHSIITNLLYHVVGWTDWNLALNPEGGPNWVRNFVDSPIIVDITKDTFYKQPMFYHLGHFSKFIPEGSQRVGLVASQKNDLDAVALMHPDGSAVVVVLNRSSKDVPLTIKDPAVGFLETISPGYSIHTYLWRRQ", "experiment": "Activation of acid β-glucosidase in liposomal reconstitution system", "type": "biochemical", "protocol": "Functional saposins were overexpressed in BL21(DE3) cells using a pET 21a series vector. Following IPTG induction at 37° C. or 30° C., large amounts of saposins containing His•Tag were found in the soluble fraction of the disrupted cells. These were conveniently purified to electrophoretic homogeneity on nickel-loaded columns. Alternatively, saposins without His•Tag were generated by introducing a stop codon after protein coding region, and then purified using immuno-affinity columns with T7-taq monoclonal antibody. […] Circular dichroism spectra, light scattering, and ES_MS analyses were used to evaluate the physical properties of the purified saposins, such as aggregation status and molecular weight. Trp-saposins without His•Tag were also generated for necessary control experiments. The functional integrity of recombinant saposin C is determined using delipidated and homogenous acid β-glucosidase in a liposomal reconstitution system and in neuritogenic assays. Recombinant saposin B function is determined using a sulfatide binding assay."}, "[5]": {"tested_on": "cultured mouse cortical and hippocampal neurons", "experiment": "Transport into cultured neurons", "type": "cell-based", "settings": "facilitated by complexes with DOPS liposomes", "protocol": "Saposin C can be transported into endosomal and lysosomal compartments using saposin-C liposomes containing long-chain anionic phospholipids. This method can be used for the treatment of neurological diseases including, for example, those in which MVB accumulation contributes to pathology and progression of disease.\nPrimary Cortical Neuron Cultures—Cortical neurons are cultured in serum-free Neuroblasal medium with B27 supplements as described by Whitmarsh et al.^44 Take out E16 mouse embryos, cut the head and place them into ice-cold Ca/Mg-free Hank Balance Salt Solution (HBSS) with papain (1 mg/ml). The brain is dissected out and place scalpel along the dorsal midline between the two cerebral hemispheres but slightly deviate towards to the side as it cut. This will give a clean cerebral cortex. Peel out the meninges gently without touching the medial side of the cortex where the hippocampus is located. Cut out the cortex with curved fine surgical scissors and collect them in ice-cold HBSS. The cortical tissue is replaced in papain HBSS solution for 15-20 minutes at room temperature to soften up the tissues. Transfer them to papain-inhibitor solution for another 5 minutes at room temperature and finally back to 2 ml ice-cold HBSS. Fisherbran 12-546 (18CIR-2) coverglasses in 12-well plate are coated with PEI containing laminin overnight. […]"}},
  "note": "Residue numbers refer to the chain shown, from its start. Names and notes keep the numbering of the source.",
  "data": [
    {"molecule": "EVCEFLVKEVTKLIDNNKTEKEILDAFDKMCSKLP [Saposin E6-P40, SapC peptide E6-P40]", "values": [
      {"measurement": "tumor-homing function", "setting": "tumors", "result": "tumor-homing function"}
    ]},
    {"molecule": "EKEILDAFDKMCSKLPK [Saposin E24-K41]", "values": [
      {"measurement": "tumor-homing function", "setting": "tumors", "result": "optimal tumor-homing function"}
    ]},
    {"molecule": "SPELVCSMLHLCSG [Saposin S67-G80, SapC peptide S67-G80]", "values": [
      {"measurement": "tumor-homing function", "setting": "tumors", "result": "tumor-homing function"}
    ]},
    {"molecule": "KSLSEECQEVVDTYGSSILSILLEEVSPELVCSMLHLCSG [Saposin K41-G80, SapC peptide K41-G80]", "values": [
      {"measurement": "tumor-homing function", "setting": "tumors", "result": "tumor-homing function"}
    ]},
    {"molecule": "FDKMCSKLPK [F32 to K41]", "values": [
      {"measurement": "tumor-homing function", "setting": "tumors", "result": "tumor-homing function"}
    ]},
    {"molecule": "B1", "values": [
      {"measurement": "time within which interaction with unsaturated PS containing membranes occurs", "setting": "[1]", "result": "≤ 10", "unit": "ms"},
      {"measurement": "kinetics of induced membrane fusion", "setting": "[2]", "result": "the same kinetics as those with Ca^2+"},
      {"measurement": "concentration that promotes the size changes", "setting": "[3]", "result": "~50", "unit": "nM"},
      {"measurement": "vesicle size upon addition of saposin C", "setting": "[3]; mono-dispersed BPS-liposomes of ˜200 nm before addition", "result": "2-3 um"},
      {"measurement": "vesicle size change", "setting": "[3]; pH 4.7, 10 min period", "result": "enlarges vesicle size"},
      {"measurement": "vesicle size change", "setting": "[3]; pH 7.4, 10 min period", "result": "not"},
      {"measurement": "fusogenic activity when bound to lipid membrane", "setting": "[4]", "result": "retains the fusogenic activity"},
      {"measurement": "activation of acid β-glucosidase", "setting": "acid β-glucosidase; purified recombinant protein", "result": "excellent activation"},
      {"measurement": "transport into neurons", "setting": "[5]", "result": "transported into the cultured mouse cortical and hippocampal neurons"}
    ]},
    {"molecule": "B2", "values": [
      {"measurement": "effect of Trp substitution on activation properties", "setting": "acid β-glucosidase", "result": "no effect"}
    ]}
  ]
}
